Experimental data from the supplement of paper PMC5998384.

Experiments:
[1] = test system: HeLa Kyoto; assay: melting temperature (median over replicates), in situ; higher = more thermally stable
[2] = test system: HeLa Kyoto; assay: solubility change mitosis vs G1/S (difference of NP-40 vs SDS log2 ratios) (log2 ratio difference); higher = more soluble in mitosis
[3] = test system: HeLa Kyoto; assay: thermal stability score vs G1/S (z-score of summed log2 fold changes over temperatures); higher = more thermally stable than in G1/S
[4] = test system: HeLa Kyoto; assay: solubility in G1/S (NP-40 vs SDS abundance) (log2 ratio); higher = more soluble; conditions: cell cycle stage: G1/S
[5] = cell cycle stage: early G1 (4.5 h after nocodazole release)
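Wherever melting temperature (median over replicates), in situ is given: HeLa Kyoto cells synchronized by double thymidine or nocodazole block, proteins quantified by TMT10plex mass spectrometry, three independent biological replicates.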
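Wherever solubility change mitosis vs G1/S (difference of NP-40 vs SDS log2 ratios) is given: synchronized HeLa Kyoto cells (double thymidine block for G1/S, nocodazole release for mitosis), protein amounts in NP-40 versus SDS lysates quantified by mass spectrometry, three biological replicates.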
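Wherever solubility in G1/S (NP-40 vs SDS abundance) is given: HeLa Kyoto cells arrested at G1/S by double thymidine block, proteins quantified by TMT10plex mass spectrometry in mild NP-40 versus SDS extracts, three biological replicates.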
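Wherever thermal stability score vs G1/S (z-score of summed log2 fold changes over temperatures) is given: synchronized HeLa Kyoto cells, proteins quantified by TMT10plex mass spectrometry, three biological replicates, mitosis taken 0.5 h after nocodazole release, G1/S directly after double thymidine block.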

Substance | melting temperature ([1]; cell cycle stage: G1/S) [°C] | melting temperature ([1]; cell cycle stage: mitosis) [°C] | solubility change mitosis (log2) [2] | thermal stability score [3, 5] | thermal stability score ([3]; cell cycle stage: mitosis) | solubility in G1/S (log2) [4]
MSPPSPGRRREQRRPRAAATMATPLPGRAGGPATPLSPTRLSRLQEKEELRELNDRLAHYIDRVRALELENDRLLLKISEKEEVTTREVSGIKALYESELADARRVLDETARERARLQIEIGKLRAELDEVNKSAKKREGELTVAQGRVKDLESLFHRSEVELAAALSDKRGLESDVAELRAQLAKAEDGHAVAKKQLEKETLMRVDLENRCQSLQEELDFRKSVFEEEVRETRRRHERRLVEVDSSRQQEYDFKMAQALEELRSQHDEQVRLYKLELEQTYQAKLDSAKLSSDQNDKAASAAREELKEARMRLESLSYQLSGLQKQASAAEDRIRELEEAMAGERDKFRKMLDAKEQEMTEMRDVMQQQLAEYQELLDVKLALDMEINAYRKLLEGEEERLKLSPSPSSRVTVSRATSSSSGSLSATGRLGRSKRKRLEVEEPLGSGPSVLGTGTGGSGGFHLAQQASASGSVSIEEIDLEGKFVQLKNNSDKDQSLGNWRIKRQVLEGEEIAYKFTPKYILRAGQMVTVWAAGAGVAHSPPSTLVWKGQSSWGTGESFRTVLVNADGEEVAMRTVKKSSVMRENENGEEEEEEAEFGEEDLFHQQGDPRTTSRGCYVM [LMNB2] | 51.4 | 50.3 | 1.67 | -7.21 | -6.08 | -1.66
MAAAGVVSGKIIYEQEGVYIHSSCGKTNDQDGLISGILRVLEKDAEVIVDWRPLDDALDSSSILYARKDSSSVVEWTQAPKERGHRGSEHLNSYEAEWDMVNTVSFKRKPHTNGDAPSHRNGKSKWSFLFSLTDLKSIKQNKEGMGWSYLVFCLKDDVVLPALHFHQGDSKLLIESLEKYVVLCESPQDKRTLLVNCQNKSLSQSFENLLDEPAYGLIQAGLLDRRKLLWAIHHWKKIKKDPYTATMIGFSKVTNYIFDSLRGSDPSTHQRPPSEMADFLSDAIPGLKINQQEEPGFEVITRIDLGERPVVQRREPVSLEEWTKNIDSEGRILNVDNMKQMIFRGGLSHALRKQAWKFLLGYFPWDSTKEERTQLQKQKTDEYFRMKLQWKSISQEQEKRNSRLRDYRSLIEKDVNRTDRTNKFYEGQDNPGLILLHDILMTYCMYDFDLGYVQGMSDLLSPLLYVMENEVDAFWCFASYMDQMHQNFEEQMQGMKTQLIQLSTLLRLLDSGFCSYLESQDSGYLYFCFRWLLIRFKREFSFLDILRLWEVMWTELPCTNFHLLLCCAILESEKQQIMEKHYGFNEILKHINELSMKIDVEDILCKAEAISLQMVKCKELPQAVCEILGLQGSEVTTPDSDVGEDENVVMTPCPTSAFQSNALPTLSASGARNDSPTQIPVSSDVCRLTPA [TBC1D15] | 49.7 | 50.2 | -0.17 | -0.47 | 0.539 | -0.164
MSVVGIDLGFLNCYIAVARSGGIETIANEYSDRCTPACISLGSRTRAIGNAAKSQIVTNVRNTIHGFKKLHGRSFDDPIVQTERIRLPYELQKMPNGSAGVKVRYLEEERPFAIEQVTGMLLAKLKETSENALKKPVADCVISIPSFFTDAERRSVMAAAQVAGLNCLRLMNETTAVALAYGIYKQDLPPLDEKPRNVVFIDMGHSAYQVLVCAFNKGKLKVLATTFDPYLGGRNFDEALVDYFCDEFKTKYKINVKENSRALLRLYQECEKLKKLMSANASDLPLNIECFMNDLDVSSKMNRAQFEQLCASLLARVEPPLKAVMEQANLQREDISSIEIVGGATRIPAVKEQITKFFLKDISTTLNADEAVARGCALQCAILSPAFKVREFSITDLVPYSITLRWKTSFEDGSGECEVFCKNHPAPFSKVITFHKKEPFELEAFYTNLHEVPYPDARIGSFTIQNVFPQSDGDSSKVKVKVRVNIHGIFSVASASVIEKQNLEGDHSDAPMETETSFKNENKDNMDKMQVDQEEGHQKCHAEHTPEEEIDHTGAKTKSAVSDKQDRLNQTLKKGKVKSIDLPIQSSLCRQLGQDLLNSYIENEGKMIMQDKLEKERNDAKNAVEEYVYDFRDRLGTVYEKFITPEDLSKLSAVLEDTENWLYEDGEDQPKQVYVDKLQELKKYGQPIQMKYMEHEERPKALNDLGKKIQLVMKVIEAYRNKDERYDHLDPTEMEKVEKCISDAMSWLNSKMNAQNKLSLTQDPVVKVSEIVAKSKELDNFCNPIIYKPKPKAEVPEDKPKANSEHNGPMDGQSGTETKSDSTKDSSQHTKSSGEMEVD [HSPA4L] | 49.8 | 49.9 | -0.0487 | 1.4 | 1.87 | 0.145
MPQTRSQAQATISFPKRKLSRALNKAKNSSDAKLEPTNVQTVTCSPRVKALPLSPRKRLGDDNLCNTPHLPPCSPPKQGKKENGPPHSHTLKGRRLVFDNQLTIKSPSKRELAKVHQNKILSSVRKSQEITTNSEQRCPLKKESACVRLFKQEGTCYQQAKLVLNTAVPDRLPAREREMDVIRNFLREHICGKKAGSLYLSGAPGTGKTACLSRILQDLKKELKGFKTIMLNCMSLRTAQAVFPAIAQEICQEEVSRPAGKDMMRKLEKHMTAEKGPMIVLVLDEMDQLDSKGQDVLYTLFEWPWLSNSHLVLIGIANTLDLTDRILPRLQAREKCKPQLLNFPPYTRNQIVTILQDRLNQVSRDQVLDNAAVQFCARKVSAVSGDVRKALDVCRRAIEIVESDVKSQTILKPLSECKSPSEPLIPKRVGLIHISQVISEVDGNRMTLSQEGAQDSFPLQQKILVCSLMLLIRQLKIKEVTLGKLYEAYSKVCRKQQVAAVDQSECLSLSGLLEARGILGLKRNKETRLTKVFFKIEEKEIEHALKDKALIGNILATGLP [CDC6] | 50.1 | 53.2 | 0.351 | 0.564 | 0.496 | -0.114
HUWE1 | 52 | 51.4 | -0.136 | 0.946 | 0.312 | -0.226
ARHGEF12 | 50.7 | 50.4 | -0.0996 | -0.146 | 0.3 | -0.0555
MSRRLLPRAEKRRRRLEQRQQPDEQRRRSGAMVKMAAAGGGGGGGRYYGGGSEGGRAPKRLKTDNAGDQHGGGGGGGGGAGAAGGGGGGENYDDPHKTPASPVVHIRGLIDGVVEADLVEALQEFGPISYVVVMPKKRQALVEFEDVLGACNAVNYAADNQIYIAGHPAFVNYSTSQKISRPGDSDDSRSVNSVLLFTILNPIYSITTDVLYTICNPCGPVQRIVIFRKNGVQAMVEFDSVQSAQRAKASLNGADIYSGCCTLKIEYAKPTRLNVFKNDQDTWDYTNPNLSGQGDPGSNPNKRQRQPPLLGDHPAEYGGPHGGYHSHYHDEGYGPPPPHYEGRRMGPPVGGHRRGPSRYGPQYGHPPPPPPPPEYGPHADSPVLMVYGLDQSKMNCDRVFNVFCLYGNVEKVKFMKSKPGAAMVEMADGYAVDRAITHLNNNFMFGQKLNVCVSKQPAIMPGQSYGLEDGSCSYKDFSESRNNRFSTPEQAAKNRIQHPSNVLHFFNAPLEVTEENFFEICDELGVKRPSSVKVFSGKSERSSSGLLEWESKSDALETLGFLNHYQMKNPNGPYPYTLKLCFSTAQHAS [HNRNPL] | 46.4 | 48.1 | 0.228 | 5.28 | 10.5 | -0.26
MED14 | 48.7 | 50.1 | -0.0671 | 0.0685 | 1.11 | -0.117
MAAADAEAVPARGEPQQDCCVKTELLGEETPMAADEGSAEKQAGEAHMAADGETNGSCENSDASSHANAAKHTQDSARVNPQDGTNTLTRIAENGVSERDSEAAKQNHVTADDFVQTSVIGSNGYILNKPALQAQPLRTTSTLASSLPGHAAKTLPGGAGKGRTPSAFPQTPAAPPATLGEGSADTEDRKLPAPGADVKVHRARKTMPKSVVGLHAASKDPREVREARDHKEPKEEINKNISDFGRQQLLPPFPSLHQSLPQNQCYMATTKSQTACLPFVLAAAVSRKKKRRMGTYSLVPKKKTKVLKQRTVIEMFKSITHSTVGSKGEKDLGASSLHVNGESLEMDSDEDDSEELEEDDGHGAEQAAAFPTEDSRTSKESMSEADRAQKMDGESEEEQESVDTGEEEEGGDESDLSSESSIKKKFLKRKGKTDSPWIKPARKRRRRSRKKPSGALGSESYKSSAGSAEQTAPGDSTGYMEVSLDSLDLRVKGILSSQAEGLANGPDVLETDGLQEVPLCSCRMETPKSREITTLANNQCMATESVDHELGRCTNSVVKYELMRPSNKAPLLVLCEDHRGRMVKHQCCPGCGYFCTAGNFMECQPESSISHRFHKDCASRVNNASYCPHCGEESSKAKEVTIAKADTTSTVTPVPGQEKGSALEGRADTTTGSAAGPPLSEDDKLQGAASHVPEGFDPTGPAGLGRPTPGLSQGPGKETLESALIALDSEKPKKLRFHPKQLYFSARQGELQKVLLMLVDGIDPNFKMEHQNKRSPLHAAAEAGHVDICHMLVQAGANIDTCSEDQRTPLMEAAENNHLEAVKYLIKAGALVDPKDAEGSTCLHLAAKKGHYEVVQYLLSNGQMDVNCQDDGGWTPMIWATEYKHVDLVKLLLSKGSDINIRDNEENICLHWAAFSGCVDIAEILLAAKCDLHAVNIHGDSPLHIAARENRYDCVVLFLSRDSDVTLKNKEGETPLQCASLNSQVWSALQMSKALQDSAPDRPSPVERIVSRDIARGYERIPIPCVNAVDSEPCPSNYKYVSQNCVTSPMNIDRNITHLQYCVCIDDCSSSNCMCGQLSMRCWYDKDGRLLPEFNMAEPPLIFECNHACSCWRNCRNRVVQNGLRARLQLYRTRDMGWGVRSLQDIPPGTFVCEYVGELISDSEADVREEDSYLFDLDNKDGEVYCIDARFYGNVSRFINHHCEPNLVPVRVFMAHQDLRFPRIAFFSTRLIEAGEQLGFDYGERFWDIKGKLFSCRCGSPKCRHSSAALAQRQASAAQEAQEDGLPDTSSAAAADPL [EHMT1] | 50.2 |  | 0.332 | 1.22 | 2.18 | -0.58
MAQRGGARRPRGDRERLGSRLRALRPGREPRQSEPPAQRGPPPSGRPPARSTASGHDRPTRGAAAGARRPRMKKKTRRRSTRSEELTRSEELTLSEEATWSEEATQSEEATQGEEMNRSQEVTRDEESTRSEEVTREEMAAAGLTVTVTHSNEKHDLHVTSQQGSSEPVVQDLAQVVEEVIGVPQSFQKLIFKGKSLKEMETPLSALGIQDGCRVMLIGKKNSPQEEVELKKLKHLEKSVEKIADQLEELNKELTGIQQGFLPKDLQAEALCKLDRRVKATIEQFMKILEEIDTLILPENFKDSRLKRKGLVKKVQAFLAECDTVEQNICQETERLQSTNFALAE [BAG1] | 54.3 | 53.7 | 0.0327 | 0.492 | -2.14 | 0.0346
MGQSGRSRHQKRARAQAQLRNLEAYAANPHSFVFTRGCTGRNIRQLSLDVRRVMEPLTASRLQVRKKNSLKDCVAVAGPLGVTHFLILSKTETNVYFKLMRLPGGPTLTFQVKKYSLVRDVVSSLRRHRMHEQQFAHPPLLVLNSFGPHGMHVKLMATMFQNLFPSINVHKVNLNTIKRCLLIDYNPDSQELDFRHYSIKVVPVGASRGMKKLLQEKFPNMSRLQDISELLATGAGLSESEAEPDGDHNITELPQAVAGRGNMRAQQSAVRLTEIGPRMTLQLIKVQEGVGEGKVMFHSFVSKTEEELQAILEAKEKKLRLKAQRQAQQAQNVQRKQEQREAHRKKSLEGMKKARVGGSDEEASGIPSRTASLELGEDDDEQEDDDIEYFCQAVGEAPSEDLFPEAKQKRLAKSPGRKRKRWEMDRGRGRLCDQKFPKTKDKSQGAQARRGPRGASRDGGRGRGRGRPGKRVA [PPAN] | 52.2 | 52 | 1.07 | -0.721 | -2.53 | -1.97
